Source: article PMC11570694

What was measured:
[1] = biological target: recombinant TTC5 labelled with Oregon Green 488 maleimide (human) (UniProt Q8N0Z6); test: MST; 50 nM Oregon Green 488-labelled TTC5 with various porcine tubulin concentrations in 250 mM NaCl, 1 mM TCEP, 20 mM HEPES pH 7.4; duplicates
[2] = biological target: endogenous TTC5 of rabbit reticulocyte lysate (rabbit (endogenous in rabbit reticulocyte lysate)) (UniProt G1SNQ6); test: cross-linking; competition: porcine brain tubulin at the indicated concentrations added to isolated β-tubulin 94-mer RNCs (Bpa at position 7) carrying endogenous TTC5, 10 min on ice in PSB, then UV; autoradiography, anti-TTC5 immunoprecipitation
Chain of endogenous TTC5 of rabbit reticulocyte lysate (rabbit (endogenous in rabbit reticulocyte lysate)) (G1SNQ6 entry or part of it): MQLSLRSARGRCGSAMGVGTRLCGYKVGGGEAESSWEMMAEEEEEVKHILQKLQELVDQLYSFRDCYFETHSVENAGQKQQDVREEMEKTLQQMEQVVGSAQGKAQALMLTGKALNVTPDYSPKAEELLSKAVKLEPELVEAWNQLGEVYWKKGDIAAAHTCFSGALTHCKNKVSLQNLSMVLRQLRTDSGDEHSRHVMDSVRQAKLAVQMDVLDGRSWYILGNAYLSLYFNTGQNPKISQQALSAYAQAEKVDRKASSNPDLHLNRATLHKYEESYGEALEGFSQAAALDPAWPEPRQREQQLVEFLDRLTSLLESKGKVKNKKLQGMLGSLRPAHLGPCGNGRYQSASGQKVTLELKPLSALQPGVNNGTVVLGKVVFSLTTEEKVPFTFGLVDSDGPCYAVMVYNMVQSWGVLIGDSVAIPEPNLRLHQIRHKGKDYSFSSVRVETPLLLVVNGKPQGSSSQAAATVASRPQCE

Chain of recombinant TTC5 labelled with Oregon Green 488 maleimide (human) (Q8N0Z6 whole entry): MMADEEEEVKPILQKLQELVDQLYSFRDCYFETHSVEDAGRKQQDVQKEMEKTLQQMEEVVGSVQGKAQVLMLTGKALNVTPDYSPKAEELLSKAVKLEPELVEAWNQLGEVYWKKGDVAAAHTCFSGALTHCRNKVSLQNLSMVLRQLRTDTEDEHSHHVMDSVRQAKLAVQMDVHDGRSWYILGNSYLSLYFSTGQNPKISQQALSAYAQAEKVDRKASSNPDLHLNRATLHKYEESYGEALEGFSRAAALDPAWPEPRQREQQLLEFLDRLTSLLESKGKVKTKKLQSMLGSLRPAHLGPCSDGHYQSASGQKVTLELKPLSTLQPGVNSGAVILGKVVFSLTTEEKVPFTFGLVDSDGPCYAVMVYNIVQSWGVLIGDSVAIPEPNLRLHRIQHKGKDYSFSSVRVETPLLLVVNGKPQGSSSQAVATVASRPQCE

porcine brain αβ-tubulins (from UniProt P02550 1-451; Q767L7 1-444) (complex)
Kd [1]: 500 nM | Ki [2]: 500 nM
